Assay results published in patent US20250043019A1 (Janssen / Centocor, published 2025).

Key:
[1] = target: T1, human CD79b on the cell surface (human, UniProt P40259 29-229); assay: flow cytometry, Carnaval cells, 1 h 37 C
T1 construct: Endogenous on DLBCL lines (HBL-1, OCI-Ly10, CARNAVAL, WILL-2, Daudi) or overexpressed on K562 / HEK293 cells; also called Ig-beta; B29
T1 sequence: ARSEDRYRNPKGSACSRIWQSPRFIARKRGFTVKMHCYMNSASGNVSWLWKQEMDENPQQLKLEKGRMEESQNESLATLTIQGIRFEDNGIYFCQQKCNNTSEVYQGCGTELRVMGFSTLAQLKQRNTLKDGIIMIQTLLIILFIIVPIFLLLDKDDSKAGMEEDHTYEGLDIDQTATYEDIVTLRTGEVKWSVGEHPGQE
Experimental: (§1) All cells were washed with BD stain buffer (BD Biosciences; Cat #554657), centrifuged at 1200 RPM for 3 minutes, with supernatant discarded. Cells were then stained for 20 minutes at 4° C. with BD stain buffer containing AlexaFluor 647 labeled anti-human IgG secondary antibody (Jackson Immuno; Cat #109-606-098) at a 1:200 dilution along with Aqua Fixable Live/Dead stain (Invitrogen; Cat #L34957) at a 1:400 dilution. All cells were washed with BD stain buffer (BD Biosciences; Cat #554657), centrifuged at 1200 RPM for 3 mins, with supernatant discarded. Cells were analyzed using Intellicyt (Sartorius) flow cytometer and mean fluorescent intensity (MFI) was generated using Forcyt software (Sartorius). MFI was graphed and EC50 values generated using GraphPad PRISM v.8. Dose response curves were generated by transforming the x axis values using the formula […]. Data was then graphed using non-linear regression curve fit analysis “log(agonist) vs. response-variable slope (four parameter)”.

[2] = target: T1, human CD79b on the cell surface; assay: cell-based or functional assay
[3] = target: T1, human CD79b on the cell surface; assay: cell-based or functional assay; remark: listed apart in the source
[4] = target: T1, human CD79b on the cell surface; assay: cell-based or functional assay; remark: listed apart in the source
[5] = target: T2, cynomolgus monkey CD79b antigen (cynomolgus monkey); assay: SPR Biacore 8k, cyno CD79b injected up to 3000 nM
T2 construct: also called cyno CD79b; CD9W1.001
Experimental: (§2) General Protocol for SPR Affinity Assessment: Affinity assessment of the bispecific trispecific constructs against human CD79b were measure using recombinantly expressed extracellular domain of CD79b short and long isoforms (CD9W7.001 and CD9W8.001, respectively) by Surface Plasmon Resonance (SPR) using a Biacore 8k SPR system (Biacore) at 25° C. in HBSP+ buffer. Cross-reactivity of the same antibody panel was also assessed against cyno and mouse antigens (CD9W1.001 and CD9W105.001, respectively). Briefly, a C1 sensor chip was immobilized with anti-human Fc (target immobilization levels of >400 RU) using vendor recommended amino coupling protocol. […] The association and dissociation phases were measured for 2 or 3 minutes and 30 minutes, respectively.
(§3) The raw binding sensorgrams were processed using Biacore Insight software (Biacore) by double-referencing and the processed sensorgrams were analyzed for cross-reactivity and fitted to a 1:1 Langmuir model to obtain on-rates, off-rates and affinities.

[6] = target: T1, human CD79b on the cell surface; assay: cell-based or functional assay; remark: listed apart in the source
[7] = target: T1, human CD79b on the cell surface; assay: flow cytometry, HBL-1 cells, 1 h 37 C; control row of Table 10, same value as Table 8
Experimental: as §1

[8] = target: T1, human CD79b on the cell surface; assay: flow cytometry, HBL-1 cells, 1 h 37 C
Experimental: as §1

[9] = target: T1, human CD79b on the cell surface; assay: cell-based or functional assay; remark: listed apart in the source
[10] = target: T3, recombinant extracellular domain of human CD79b, short isoform (human, UniProt P40259 29-159); assay: SPR Biacore 8k, antibody captured by anti-Fc, 25 C
T3 chain: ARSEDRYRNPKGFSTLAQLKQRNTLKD
Experimental: as §2, §3

[11] = target: T4, recombinant extracellular domain of human CD79b, long isoform (human, UniProt P40259 29-159); assay: SPR Biacore 8k, antibody captured by anti-Fc, 25 C
T4 construct: also called hu CD79b long
T4 sequence: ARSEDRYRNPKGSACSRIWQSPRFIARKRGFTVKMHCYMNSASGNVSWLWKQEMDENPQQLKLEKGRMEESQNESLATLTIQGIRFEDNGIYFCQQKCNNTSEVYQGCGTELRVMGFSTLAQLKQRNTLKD
Experimental: as §2, §3

[12] = target: T1, human CD79b on the cell surface; assay: cell-based or functional assay; remark: listed apart in the source
[13] = target: T1, human CD79b on the cell surface; assay: flow cytometry, Carnaval cells, 1 h 37 C; control row of Table 10, same value as Table 8
Experimental: as §1

[14] = target: T5, human CD20 on the cell surface (human, UniProt P11836 1-297); assay: cell-based or functional assay
T5 sequence (looked up): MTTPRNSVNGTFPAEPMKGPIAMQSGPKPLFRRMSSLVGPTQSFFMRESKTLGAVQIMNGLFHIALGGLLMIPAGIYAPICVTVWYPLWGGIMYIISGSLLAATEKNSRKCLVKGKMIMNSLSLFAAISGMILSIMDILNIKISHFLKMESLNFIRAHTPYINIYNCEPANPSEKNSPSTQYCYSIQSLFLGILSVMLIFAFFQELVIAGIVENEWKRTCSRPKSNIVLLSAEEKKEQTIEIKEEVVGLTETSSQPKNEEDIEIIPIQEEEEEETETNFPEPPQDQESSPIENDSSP

[15] = target: T1, human CD79b on the cell surface; assay: cell-based or functional assay; remark: listed apart in the source
[16] = target: T1, human CD79b on the cell surface; assay: cell-based or functional assay; remark: listed apart in the source

B1: 79C3B646 CD79bxCD3 bispecific antibody (bispecific antibody, human IgG1, lambda, L234A L235A)
heavy: QVQLQQSGPGLVKPSQTLSLTCAISGDSVSSNSATWNWIRQSPSRGLEWLGRTYYRSKWYNDYTVSVKSRITINPDTSKNQFSLQLNSVTPEDTAVYYCTRVDIAFDYWGQGTLVTVSSASTKGPSVFPLAPSSKSTSGGTAALGCLVKDYFPEPVTVSWNSGALTSGVHTFPAVLQSSGLYSLSSVVTVPSSSLGTQTYICNVNHKPSNTKVDKKVEPKSCDKTHTCPPCPAPEAAGGPSVFLFPPKPKDTLMISRTPEVTCVVVSVSHEDPEVKFNWYVDGVEVHNAKTKPREEQYNSTYRVVSVLTVLHQDWLNGKEYKCKVSNKALPAPIEKTISKAKGQPREPQVYTLPPSREEMTKNQVSLSCAVKGFYPSDIAVEWESNGQPENNYKTTPPVLDSDGSFFLVSKLTVDKSRWQQGNVFSCSVMHEALHNRFTQKSLSLSPGK
light: QTVVTQPPSVSEAPRQRVTISCSGSSSNIGNHGVNWYQQLPGKAPKLLIYNDDLLPSGVSDRFSGSTSGTSGSLAISGLQSEDEADYYCAAWDDSLNGVVFGGGTKLTVLGQPKAAPSVTLFPPSSEELQANKATLVCLISDFYPGAVTVAWKADSSPVKAGVETTTPSKQSNNKYAASSYLSLTPEQWKSHRSYSCQVTHEGSTVEKTVAPTECS
chain: EIVLTQSPATLSASPGERVTLSCSASSSVSYMNWYQQKPGQAPRRWIYDSSKLASGVPARFSGSGSGRDYTLTISSLEPEDFAVYYCQQWSRNPPTFGGGTKVEIKGGSEGKSSGSGSESKSTGGSQVQLVQSGAEVKKPGSSVKVSCKASGYTFTRSTMHWVKQAPGQGLEWIGYINPSSAYTNYNQKFQGRVTLTADKSTSTAYMELSSLRSEDTAVYYCASPQVHYDYAGFPYWGQGTLVTVSSEPKSSDKTHTCPPCPAPEAAGGPSVFLFPPKPKDTLMISRTPEVTCVVVSVSHEDPEVKFNWYVDGVEVHNAKTKPREEQYNSTYRVVSVLTVLHQDWLNGKEYKCKVSNKALPAPIEKTISKAKGQPREPQVYTLPPSREEMTKNQVSLWCLVKGFYPSDIAVEWESNGQPENNYKTTPPVLDSDGSFFLYSKLTVDKSRWQQGNVFSCSVMHEALHNHYTQKSLSLSPGK
notes: IgG1 bispecific; CD79b Fab arm plus CD3 scFv-Fc arm; also called 79C3B646 bsAb; CD9B330-N31S x CD3B2030-N106A
EC50 [1]: 44 nM
IC50, T-cell killing of OCI-Ly10 (Incucyte) [2]: 18.3 nM
IC50, CARNAVAL killing, 72 h (FACS) [3]: 0.29 nM
IC50, HBL-1 killing, 72 h (FACS) [3]: 0.73 nM
IC50, OCI-LY10 killing, 72 h (FACS) [3]: > 100 nM
IC50, T-cell killing of HBL-1 (Incucyte) [4]: 0.257 nM
Kd [5]: > 3000 nM
IC50, CARNAVAL killing (Incucyte) [6]: 1.39 nM
EC50 [7]: 97 nM
EC50 [8]: 97 nM
Cmax (maximum cytotoxicity), donor 1 [9]: 9%
Cmax (maximum cytotoxicity), donor 2 [9]: 14%
Cmax (maximum cytotoxicity), donor 3 [9]: 35%
EC50, autologous B-cell depletion, donor 1 [9]: 40 nM
EC50, autologous B-cell depletion, donor 2 [9]: 6 nM
EC50, autologous B-cell depletion, donor 3 [9]: 8 nM
Kd [10]: 0.58 nM
Kd [11]: 0.022 nM
IC50, Daudi killing (Incucyte) [12]: 0.597 nM
EC50 [13]: 44 nM

B2: C923B169 CD79bxCD20xCD3 trispecific antibody (CD9B374 Fab x C20B648 LH scFv x CD3B2030 N106A LH scFv) (other)
heavy: QVQLQESGPGLVKPSETLSLTCSVSGASISSFYWSWIRQPADEGLEWIGRISPSGKTNYIPSLKSRIIMSLDASKNQFSLRLNSVTAADTAMYYCARGEYSGTYSYSFDVWGQGTMVTVSSASTKGPSVFPLAPSSKSTSGGTAALGCLVKDYFPEPVTVSWNSGALTSGVHTFPAVLQSSGLYSLSSVVTVPSSSLGTQTYICNVNHKPSNTKVDKKVEPKSCDKTHTCPPCPAPEAAGGPSVFLFPPKPKDTLMISRTPEVTCVVVSVSHEDPEVKFNWYVDGVEVHNAKTKPREEQYNSTYRVVSVLTVLHQDWLNGKEYKCKVSNKALPAPIEKTISKAKGQPREPQVYTLPPSREEMTKNQVSLSCAVKGFYPSDIAVEWESNGQPENNYKTTPPVLDSDGSFFLVSKLTVDKSRWQQGNVFSCSVMHEALHNRFTQKSLSLSPGK
light: DIVMTQSPLSLSVTPGEPASISCRSSESLLDSEDGNTYLDWFLQKPGQSPQLLIYTLSYRASGVPDRFSGSGSDTDFTLHISSLEAEDVGLYYCMQRMEFPLTFGQGTKVEIKRTVAAPSVFIFPPSDEQLKSGTASVVCLLNNFYPREAKVQWKVDNALQSGNSQESVTEQDSKDSTYSLSSTLTLSKADYEKHKVYACEVTHQGLSSPVTKSFNRGEC
chain: EIVLTQSPATLSASPGERVTLSCSASSSVSYMNWYQQKPGQAPRRWIYDSSKLASGVPARFSGSGSGRDYTLTISSLEPEDFAVYYCQQWSRNPPTFGGGTKVEIKGGSEGKSSGSGSESKSTGGSQVQLVQSGAEVKKPGSSVKVSCKASGYTFTRSTMHWVKQAPGQGLEWIGYINPSSAYTNYNQKFQGRVTLTADKSTSTAYMELSSLRSEDTAVYYCASPQVHYDYAGFPYWGQGTLVTVSSEPKSSDKTHTCPPCPAPEAAGGPSVFLFPPKPKDTLMISRTPEVTCVVVSVSHEDPEVKFNWYVDGVEVHNAKTKPREEQYNSTYRVVSVLTVLHQDWLNGKEYKCKVSNKALPAPIEKTISKAKGQPREPQVYTLPPSREEMTKNQVSLWCLVKGFYPSDIAVEWESNGQPENNYKTTPPVLDSDGSFFLYSKLTVDKSRWQQGNVFSCSVMHEALHNHYTQKSLSLSPGKGGGGSGGGGSGGGGSGGGGSEIVLTQSPATLSLSPGERATLSCRASLSVSSMHWYQQKPGQAPRLLIYATSNLASGIPARFSGSGSGTDFTLTISSLEPEDFAVYYCQQWIFNPPTFGGGTKVEIKGGSEGKSSGSGSESKSTGGSQVQLVQSGAEVKKPGSSVKVSCKASGYTFSSYNMHWVRQAPGQGLEWMGAIYPGAGDTSYAQKFQGRVTITADESTSTAYMELSSLRSEDTAVYYCARSNYYGSSGWYFDVWGKGTTVTVSS
EC50, long-term Incucyte cytotoxicity, K562 CD20 [14]: 4.08 nM
EC50, long-term Incucyte cytotoxicity, K562 CD79b [15]: 1.04 nM
EC50, decrease of IL-10 secretion by CD79b mutant OCI-Ly10 cells (MSD assay) [16]: 15.4 nM
